Residue numbers refer to the chain shown, from its start. Numbers in names are those of the source.
How the values were obtained:
purified protein [1] = substrate: N[C@@H](CS)C(=O)O; assay: purified protein; details: co-substrate L-His; 23 °C
purified protein [2] = substrate: N[C@@H](Cc1c[nH]cn1)C(=O)O; assay: purified protein; details: co-substrate L-Cys
[3] = substrate: N[C@@H](CS)C(=O)O; assay: O2 consumption, NeoFoxy oxygen electrode; assay type: biochemical, Hydrogenimonas thermophila; details: co-substrate L-His, 23 °C
[4] = substrate: C[N+](C)(C)[C@@H](Cc1cnc[nH]1)C(=O)[O-]; assay: O2 consumption, NeoFoxy oxygen electrode; assay type: biochemical, Hydrogenimonas thermophila; details: co-substrate L-Cys, 23 °C
[5] = substrate: N[C@@H](Cc1c[nH]cn1)C(=O)O; assay: O2 consumption, NeoFoxy oxygen electrode; assay type: biochemical, Hydrogenimonas thermophila; details: co-substrate L-Cys, 23 °C

B1: OvoATh2 (Hydrogenimonas thermophila; Y399F) (protein)
chain: NKILLRPLLLKQKNPENLRQLIKKSFHRTFDTFESLFSMLRNDEAFYNRPEPLRHPHIFYFGHTAVFFINKLILSKIIDTRINAKMESIFAIGVDEMSWDDLNDDHYEWPSVEETRLYRNRVREVVDNLINTLPLELPITWDSPWWIILMGIEHERIHIETSSVLIRQTDISLVLPQPEWSKCNVSGKAPENELLFVPGGEIEIGKYKSDDYYGWDNEYGKHKTVIPDFKASKYLVSNGEFMEFVKDGGYENDLWWEEEGLAWRNFKKAKHPIFWIPFKNEYRYRTLTEIVDMPLDWPVDVNYHEAKAFCNWLSAKKGKPIRLPVEDEWYRLKEYCNVPDVSKWDEKAPANINLEHYASACPVTQFSFGNFYDVIGNVWQWTETPIYPFNGFKIHPIFDDFSTPTFDNRHNLIKGGSFISTGNEILASSRYAFRRHFFQHAGFRYVESSYKEKINSSGYESDTQVSQYCEFGWGDRYFGIENYPKRCAKICIEVTEGKPRKKALDVGCAIGRSTLELATSFESVTGLDFSARFIEMAERMRKDGSIRYTITTEGELVEYKEATLPKRLAKVVDRVEFWQADACNLKPIFTGYDLVFAGNLIDRLYDPAKFLNDIGKRINSGGMLILTSPYTWLEEFTPKQKWLGGFKQDGEPVKSIDGLKSHLKDSFKLIETRDIEFVIRETARKFQHSVAQMSIWEKI
How did the Km (purified protein [1]) turn out when B1 was run?
Its Km is 575.2 ± 22.0 µM.

And the kcat (purified protein [1])?
The kcat was 361.2 ± 5.9 min^–1.

And the kcat/Km (purified protein [1])?
Its kcat/Km is 10500 M⁻¹ s⁻¹.

What about the Km (purified protein [2]; 23 °C) of the same protein?
Its Km is 38.2 ± 2.6 µM.

And the kcat (purified protein [2]; 23 °C)?
Its kcat is 361.2 ± 5.9 min^–1.

B2: OvoATh2 (Hydrogenimonas thermophila; Y399F/Y61F) (protein)
chain: B1 chain with Y60F
With B2 as the protein, how does the Km (purified protein [2]) read?
Its Km is 31.3 ± 4.0 µM.

And the kcat (purified protein [2])?
The kcat was 14.8 ± 0.3 min^–1.

B3: OvoATh2 (Hydrogenimonas thermophila; Y61F) (protein)
chain: B1 chain with Y60F, F398Y
Which Km (purified protein [2]) does the source give for B3 here?
Its Km is 50.9 ± 2.5 µM.

And the kcat (purified protein [2])?
The kcat was 23.4 ± 0.2 min^–1.

B4: OvoATh2 (Hydrogenimonas thermophila) (protein)
chain: B1 chain with F398Y
Which results are given for B4?
Km [3]: 278.6 ± 9.0 µM; kcat [3]: 589.0 ± 3.5 min^–1; kcat/Km [3]: 35000 ± 1500 M⁻¹ s⁻¹; Km [4]: 61.9 ± 3.5 µM; kcat [4]: 127.2 ± 1.5 min^–1; Km [5]: 585.1 ± 28.0 µM; kcat [5]: 589.0 ± 3.5 min^–1

From article PMC10696552
